# T1: CD19 (UniProt P15391 20-556, limits assumed)
# T1 sequence (looked up): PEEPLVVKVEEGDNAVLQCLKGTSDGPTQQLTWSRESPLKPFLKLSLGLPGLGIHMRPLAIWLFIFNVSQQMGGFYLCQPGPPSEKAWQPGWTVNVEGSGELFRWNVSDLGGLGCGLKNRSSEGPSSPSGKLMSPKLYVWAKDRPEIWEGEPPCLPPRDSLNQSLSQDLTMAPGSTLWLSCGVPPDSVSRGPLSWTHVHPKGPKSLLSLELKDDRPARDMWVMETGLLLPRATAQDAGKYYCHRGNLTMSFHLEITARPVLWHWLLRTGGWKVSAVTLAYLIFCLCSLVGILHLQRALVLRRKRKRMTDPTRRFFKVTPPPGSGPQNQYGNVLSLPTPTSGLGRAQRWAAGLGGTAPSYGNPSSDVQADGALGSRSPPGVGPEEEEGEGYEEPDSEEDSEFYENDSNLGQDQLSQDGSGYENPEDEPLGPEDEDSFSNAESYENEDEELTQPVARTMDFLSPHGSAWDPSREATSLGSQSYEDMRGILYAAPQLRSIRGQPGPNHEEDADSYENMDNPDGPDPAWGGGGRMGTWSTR
# B1: αCD19-SDIE (antibody, human IgG1, V domains shown)
# VH: EVQLQQSGPELIKPGASVKMSCKASGYTFTSYVMHWVKQKPGQGLEWIGYINPYNDGTKYNEKFKGKATLTSDKSSSTAYMELSSLTSEDSAVYYCARGTYYYGSRVFDYWGQGTTLTVSS
# VL: DIVMTQAAPSIPVTPGESVSISCRSSKSLLNSNGNTYLYWFLQRPGQSPQLLIYRMSNLASGVPDRFSGSGSGTAFTLRISRVEAEDVGVYYCMQHLEYPFTFGAGTKLELK
# Target: T1, CD19
# Experiment: cell-based or functional assay
binder,measurement,value
B1,"inhibition of proliferation of NALM16 cells with PBMC (3H-thymidine uptake, 2 days)",~60%

# — patent US20180044391A1 (DEUTSCHES KREBSFORSCHUNGSZENTRUM, published 2018)
